Assay results reported in paper PMC6451933.

Target: t-SNARE complex (syntaxin 1 and SNAP25) (UniProt Q16623)
Sequence (Q16623 whole entry, chain 1 of 2): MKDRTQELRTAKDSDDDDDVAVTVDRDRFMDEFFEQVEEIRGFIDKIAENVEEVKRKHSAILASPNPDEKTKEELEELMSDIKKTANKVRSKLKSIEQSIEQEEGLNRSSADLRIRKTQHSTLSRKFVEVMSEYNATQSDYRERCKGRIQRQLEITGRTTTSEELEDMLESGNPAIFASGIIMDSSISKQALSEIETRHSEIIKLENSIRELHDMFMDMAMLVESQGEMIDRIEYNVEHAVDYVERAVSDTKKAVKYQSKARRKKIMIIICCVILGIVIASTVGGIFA
Sequence (chain, as listed by the source, chain 2 of 2): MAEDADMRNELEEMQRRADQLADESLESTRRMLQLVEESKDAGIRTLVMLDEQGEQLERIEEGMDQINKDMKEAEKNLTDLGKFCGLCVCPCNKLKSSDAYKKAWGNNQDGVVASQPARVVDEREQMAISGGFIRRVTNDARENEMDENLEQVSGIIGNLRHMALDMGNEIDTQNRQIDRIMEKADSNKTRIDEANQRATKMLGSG

reconstituted liposome lipid-mixing assay (NBD dequenching), basal fusion without Munc18-1 of v-liposomes with t-SNARE liposomes, against WT VAMP2: 25%
Substance: VAMP2 p.Ser75Pro variant (from UniProt P63027 1-116) (natural protein)
